Results as given in patent publication US20100240066A1 (MCGILL UNIVERSITY, published 2010).
Where no end group is shown, it is not given here.

T1: E-cadherin/Fc chimeric protein (human, UniProt P12830 155-707)
T1 construct: range 155-707; Bought from R&D Systems; also called E-cad/Fc; human E-cadherin/Fc chimeric protein; not shown: Fc region of human IgG1
T1 sequence (looked up): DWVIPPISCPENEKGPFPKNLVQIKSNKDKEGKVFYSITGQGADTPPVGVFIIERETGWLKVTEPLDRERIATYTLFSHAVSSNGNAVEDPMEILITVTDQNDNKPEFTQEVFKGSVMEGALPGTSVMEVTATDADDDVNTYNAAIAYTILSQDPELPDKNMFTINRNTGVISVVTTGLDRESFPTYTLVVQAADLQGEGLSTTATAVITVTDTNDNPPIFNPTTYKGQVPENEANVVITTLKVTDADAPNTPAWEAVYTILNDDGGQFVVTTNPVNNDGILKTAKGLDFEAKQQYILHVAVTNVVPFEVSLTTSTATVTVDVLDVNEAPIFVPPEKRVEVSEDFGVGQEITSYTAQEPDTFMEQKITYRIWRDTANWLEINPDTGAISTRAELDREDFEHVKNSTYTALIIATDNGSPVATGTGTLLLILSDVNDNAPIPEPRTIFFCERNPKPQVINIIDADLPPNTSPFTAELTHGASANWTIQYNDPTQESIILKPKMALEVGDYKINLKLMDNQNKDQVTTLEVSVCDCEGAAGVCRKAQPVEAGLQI

T2: VE-cadherin/Fc chimeric protein (UniProt P33151 48-593)
T2 construct: Bought from R&D Systems; also called vascular endothelial (VE)-cadherin/Fc chimeric protein; not shown: Fc part not described
T2 sequence (looked up): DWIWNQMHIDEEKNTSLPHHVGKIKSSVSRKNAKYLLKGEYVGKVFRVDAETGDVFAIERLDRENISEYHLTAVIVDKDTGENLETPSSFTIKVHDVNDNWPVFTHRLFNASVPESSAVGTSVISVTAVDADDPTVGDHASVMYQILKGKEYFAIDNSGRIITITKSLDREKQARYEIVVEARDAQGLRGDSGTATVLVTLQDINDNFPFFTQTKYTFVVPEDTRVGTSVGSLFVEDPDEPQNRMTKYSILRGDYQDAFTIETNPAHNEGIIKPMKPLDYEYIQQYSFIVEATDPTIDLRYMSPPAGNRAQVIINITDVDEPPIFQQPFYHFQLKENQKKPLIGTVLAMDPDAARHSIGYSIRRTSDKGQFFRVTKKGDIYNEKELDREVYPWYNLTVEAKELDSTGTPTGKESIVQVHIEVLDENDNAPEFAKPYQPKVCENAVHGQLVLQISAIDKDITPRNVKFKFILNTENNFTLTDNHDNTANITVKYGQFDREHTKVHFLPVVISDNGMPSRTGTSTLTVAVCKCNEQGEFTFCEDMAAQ

T3: N-cadherin/Fc chimeric protein (human, UniProt P19022 160-724)
T3 construct: range 160-724; Bought from R&D Systems; also called N-cad/Fc; human N-cadherin/Fc chimeric protein; not shown: Fc region of human IgG1
T3 sequence (looked up): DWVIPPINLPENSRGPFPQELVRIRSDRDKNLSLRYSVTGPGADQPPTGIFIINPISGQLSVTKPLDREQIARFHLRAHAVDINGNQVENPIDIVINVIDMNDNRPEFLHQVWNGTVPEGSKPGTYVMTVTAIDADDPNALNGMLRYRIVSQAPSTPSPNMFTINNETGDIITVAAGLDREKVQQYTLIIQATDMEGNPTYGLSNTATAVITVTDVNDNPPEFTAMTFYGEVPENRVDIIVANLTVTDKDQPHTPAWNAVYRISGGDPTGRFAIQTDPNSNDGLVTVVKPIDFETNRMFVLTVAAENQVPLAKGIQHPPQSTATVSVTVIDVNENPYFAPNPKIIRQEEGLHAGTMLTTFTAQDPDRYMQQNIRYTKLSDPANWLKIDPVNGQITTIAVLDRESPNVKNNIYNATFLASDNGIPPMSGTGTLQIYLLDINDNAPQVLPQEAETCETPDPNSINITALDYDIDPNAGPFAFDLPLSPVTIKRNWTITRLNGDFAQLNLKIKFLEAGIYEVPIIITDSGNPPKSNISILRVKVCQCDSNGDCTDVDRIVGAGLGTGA

B1: phage clone Nc 8 (peptide)
peptide: WTVCPIGNC
modifications: not fully specified; cysteine pairing not given here; also: displayed on M13 phage pIII
notes: whole phage in the assay
B2: phage clone Nc 5 (peptide)
peptide: WEFSICETC
modifications: not fully specified; cysteine pairing not given here; also: displayed on M13 phage pIII
notes: whole phage in the assay

Tests used:
[1] = molecular target: T1, E-cadherin/Fc chimeric protein; assay: phage ELISA
Protocol: (§1) The phage clones shown to bind to the N-cadherin/Fc chimeric protein by ELISA were also evaluated for their ability to bind to E-cadherin/Fc and VE-cadherin/Fc chimeric proteins. The phage clones shown to bind to the E-cadherin/Fc chimeric protein by ELISA were also evaluated for their ability to bind to N-cadherin/Fc and VE-cadherin/Fc chimeric proteins. The same ELISA protocol described in the previous section was used to perform this evaluation with the exception that the wells were coated with either 100 ng N-cadherin/Fc, E-cadherin/Fc or VE-cadherin/Fc chimeric protein (R&D Systems, Minneapolis, Minn.).

[2] = molecular target: T2, VE-cadherin/Fc chimeric protein; assay: phage ELISA
Protocol: as §1

[3] = molecular target: T3, N-cadherin/Fc chimeric protein; assay: phage ELISA, 1.2 mM calcium
Protocol: The binding of each clone to the cadherin/Fc chimeric proteins was confirmed by ELISA. Wells of ProBind microtiter plates (Falcon) were coated with either N-cadherin/Fc or E-cadherin/Fc chimeric protein (100 ng/well) or human IgG1 (which contains the Fc fragment) (100 ng/well). After blocking the nonspecific sites with TBS containing 3% BSA and 1.2 mM CaCl₂ for 1 h at 37° C., phage clones (10⁹ pfu) diluted in TBST containing 3% BSA and 1.2 mM CaCl₂ (100 μl/well). Non-coated wells were also used to exclude any phage that bound to the plastic surface. After 1 h incubation at room temperature, wells were washed 3 times with TBST containing 3% BSA and 1.2 mM CaCl₂. M13 phage without any insert were used to control the non-specific binding of the phage itself to the target. Monoclonal anti-M13 antibody conjugated to horseradish peroxidase (Amersham Biosciences, Piscataway, N.J.) was diluted in TBST containing 3% BSA and 1.2 mM CaCl₂ (1:2,000) and added to each well (100 μl/well). After 1 h incubation at room temperature, wells were washed three times with TBST containing 3% BSA and 1.2 mM CaCl₂ and once with TBS containing 1.2 mM CaCl₂. Horseradish peroxidase substrate, TMB (Sigma), was added to each well (100 μl/well and after color development the reaction was stopped by addition of 100 μl 0.5 M sulphuric acid to each well. The intensity of the color was measured at 450 nm.
An ELISA was performed in the presence of either 1.2 mM calcium or 2 mM EDTA. […] The signal obtained in the presence of EDTA was lower than in the presence of calcium.

[4] = molecular target: T3, N-cadherin/Fc chimeric protein; assay: summary table, column Peptide Binds to N-cad/Fc; assay not named
[5] = molecular target: T2, VE-cadherin/Fc chimeric protein; assay: surface plasmon resonance (Biacore), chimera captured by anti-human IgG
Protocol: The binding of representative peptide modulating agents to either N- or VE-cadherin/Fc chimeric proteins was assessed using a BIAcore X™ Biosensor (Pharmacia Ltd., Sweden). Goat anti-human IgG recognizing N- and VE-cadherin/Fc chimeric proteins (R&D Systems, Minneapolis, Minn.) was immobilized on a CM5 sensor chip (Biacore S51) using standard amine-coupling method at 25° C. HBS-P buffer (10 mM HEPES, 0.15 M NaCl, 0.005% p20, pH 7.4) was used as the running buffer. The carboxymethyl dextran surface was activated with a 7 min injection of a 1:1 ratio of 0.4 M EDC and 0.1 M NHS. The goat anti-human IgG (Caltag Lab.) was coupled to the surface with a 7 min injection diluted in 10 mM sodium acetate, pH 5.0 to a final concentration 80 ug/ml. Remaining activated groups were blocked with a 7 min injection of 1 M ethanolamine, pH 8.5. N- and VE-cadherin/Fc chimeric proteins were dissolved in buffer containing 50 mM Tris HCl, 150 mM NaCl, and 1.2 mM CaCl₂ pH 7.5 to a concentration of 0.2 μM and captured on spots 1 and 2 at a flow rate of 30 μl/min for 30 min with resulting density 927 RU for N-cadherin/Fc chimeric protein and 1008 RU for VE-cadherin/Fc chimeric protein. […]
(§2) The binding of the linear peptide H-[…]-NH₂ (SEQ ID NO: 16) to N- and VE-cadherin/Fc chimeric proteins was analyzed by surface plasma resonance.

[6] = molecular target: T1, E-cadherin/Fc chimeric protein; assay: summary table, column Peptide Binds to E-cad/Fc; assay not named
[7] = molecular target: T3, N-cadherin/Fc chimeric protein; assay: surface plasmon resonance (Biacore), N-cadherin/Fc captured by anti-human IgG, peptide as analyte, 1.2 mM CaCl2, 25 C
Protocol: The binding of representative peptide modulating agents to either N- or VE-cadherin/Fc chimeric proteins was assessed using a BIAcore X™ Biosensor (Pharmacia Ltd., Sweden). Goat anti-human IgG recognizing N- and VE-cadherin/Fc chimeric proteins (R&D Systems, Minneapolis, Minn.) was immobilized on a CM5 sensor chip (Biacore S51) using standard amine-coupling method at 25° C. HBS-P buffer (10 mM HEPES, 0.15 M NaCl, 0.005% p20, pH 7.4) was used as the running buffer. The carboxymethyl dextran surface was activated with a 7 min injection of a 1:1 ratio of 0.4 M EDC and 0.1 M NHS. The goat anti-human IgG (Caltag Lab.) was coupled to the surface with a 7 min injection diluted in 10 mM sodium acetate, pH 5.0 to a final concentration 80 ug/ml. Remaining activated groups were blocked with a 7 min injection of 1 M ethanolamine, pH 8.5. N- and VE-cadherin/Fc chimeric proteins were dissolved in buffer containing 50 mM Tris HCl, 150 mM NaCl, and 1.2 mM CaCl₂ pH 7.5 to a concentration of 0.2 μM and captured on spots 1 and 2 at a flow rate of 30 μl/min for 30 min with resulting density 927 RU for N-cadherin/Fc chimeric protein and 1008 RU for VE-cadherin/Fc chimeric protein.
The linear peptide H-[…]-NH₂ (SEQ ID NO: 16) and the control linear peptide H-[…]-NH₂ (SEQ ID NO: 58) were passed over surfaces coated with captured N- and VE-cadherin/Fc chimeric proteins in running buffer containing 50 mM Tris-HCl, 150 mM NaCl, and 1.2 mM CaCl₂, pH 7.5 at concentrations ranging from 100-1.56 uM. The experiment was performed at a flow rate 90 ul/min at 25° C. […] All responses were referenced for reference surface and blank injections of running buffer.
as §2

| Binder | binding result [1] | binding result [2] | binding result [3] | binding result [4] | binding result [6] | further results |
| --- | --- | --- | --- | --- | --- | --- |
| HWYITTGPVREK (whole phage in the assay) [phage clone Nc 12-01] | no binding (tested: 10^9 pfu) | no binding (tested: 10^9 pfu) | binds |  |  |  |
| H-SRTLYTPSGQSK-NH2 [H-SRTLYTPSGQSK-NH2] |  |  |  | no binding |  | binding result [5]: no binding (tested: 100-1.56 uM) |
| KWELTYFANSFP (whole phage in the assay) [phage clone Nc 12-a3] | no binding (tested: 10^9 pfu) | no binding (tested: 10^9 pfu) | binds |  |  |  |
| B1 | no binding (tested: 10^9 pfu) | no binding (tested: 10^9 pfu) |  |  |  |  |
| EWMIHYDSALTS (not fully specified, whole phage in the assay) [phage clone Nc 12-a6] | binds | no binding (tested: 10^9 pfu) | binds |  |  |  |
| H-EWMIHYDSALTS-NH2 (Synthetic linear peptide) [H-EWMIHYDSALTS-NH2] |  |  |  | binds | binds |  |
| B2 | no binding (tested: 10^9 pfu) | no binding (tested: 10^9 pfu) |  |  |  |  |
| H-WELRVSSP-NH2 (Synthetic linear peptide) [H-WELRVSSP-NH2] |  |  |  | binds | no binding |  |
| H-SWTLYTPSGQSK-NH2 (Synthetic linear peptide) [H-SWTLYTPSGQSK-NH2] |  |  |  |  | no binding | binding result [5]: no binding (tested: 100-1.56 uM); Kd [7]: 66 µM; koff [7]: 0.407 s⁻¹; kon [7]: 6100 M⁻¹ s⁻¹ |
| H-WYVCVGAH-NH2 (Synthetic linear peptide) [H-WYVCVGAH-NH2] |  |  |  | binds | no binding |  |
| AWQVHYSYVASS (whole phage in the assay) [phage clone Nc 12-a7] | binds | no binding (tested: 10^9 pfu) | binds |  |  |  |
| SWLAVWPATGAS (whole phage in the assay) [phage clone Nc 12-a10] | binds | no binding (tested: 10^9 pfu) | binds |  |  |  |
| H-SWELYYPLRANL-NH2 (Synthetic linear peptide) [H-SWELYYPLRANL-NH2] |  |  |  | binds | binds |  |
| H-HWYITTGPVREK-NH2 (Synthetic linear peptide) [H-HWYITTGPVREK-NH2] |  |  |  | binds | no binding |  |
| NWFIDFPVYPPL (whole phage in the assay) [phage clone Nc 12-a1] | no binding (tested: 10^9 pfu) | no binding (tested: 10^9 pfu) | binds |  |  |  |
